This is an account of results in publication PMC12657314, “Structural modeling and biochemical characterization of MSMEG_0748, a MoxR ATPase from Mycobacterium smegmatis” (Computational and Structural Biotechnology Journal, 2025).

Numbering of substitutions follows the chain as printed. In names and notes the source's numbering stands.

One may read the Km as the substrate concentration at which the rate is half of its maximum. Broadly, the stoichiometry N is the number of molecules, sites or subunits per partner or assembly.

Substrate in the series “purified protein”: Nc1ncnc2c1ncn2[C@@H]1O[C@H](COP(=O)(O)OP(=O)(O)OP(=O)(O)O)[C@@H](O)[C@H]1O
In words: purified protein. To be noted: 50 mM Tris-HCl pH 8.0, 150 mM KCl, 2 mM MgCl2, 2 mM DTT, 30 °C, 200 nM protein. It counts as biochemical, Mycolicibacterium smegmatis.

Series [1] deals with the molecule itself. In words: SEC-MALS; Superdex 200 Increase 10/300 GL, 5 mg/mL protein injected, 20 mM Tris-HCl pH 7.5, 300 mM NaCl, 0.5 mM TCEP, flow 0.5 mL/min; DAWN Heleos II detector. In general terms: SEC sorts molecules by how far they enter the pores of the column.

B1: MSMEG_0748 (Mycolicibacterium smegmatis MC2 155) (protein)
chain: MRMAAEPGAAVTGFGGVDDVVRRFDAHDYLLDEGTATAIYLAVSLGRPLLLEGEPGVGKTTAAKTLAAVLGTPLIRLQCYEGLTASEALYDWNYQRQLLSIRLAEARGGEHLDEAALYTESYLVDRPILQCVRHRGPSSPVLLVDEIDRADDEFEALLLEFLGEAAVTVPELGTFVAERPPVVVLTSNRSRDLHDALRRRCLYHWIEYPQRAQAVAIVRRTVPGATDALIDSAVQFVSAARELDLDKPPGVAETIDWVAALVALRVGDLVDPAALGTLGALAKTPDDSGLMRDALLDLTN
notes: full length, N-terminal His-tag cut off by rTEV protease, expressed in E. coli BL21(DE3)
Regarding B1, in the series “purified protein”, the Km is 0.6951 µM and the kcat came out at 0.0251 S^−1.

B2: MSMEG_0748 (Mycolicibacterium smegmatis MC2 155; E146Q) (protein)
chain: B1 chain with E146Q
notes: as for B1
As for B2, in “purified protein”, the Km is 0.9024 µM and the kcat was 0.0189 S^−1.

B3: MSMEG_0748 (MoxR-type AAA+ ATPase from Mycobacterium smegmatis mc2 155), recombinant, tag-cleaved (enzyme, UniProt A0QQG6 1-300, looked up)
chain: B1 chain
notes: MSMEG_0748, MoxR-type AAA+ ATPase, Mycobacterium smegmatis mc2 155, UniProt A0QQG6; amplified from genomic DNA into pProEX-HTa; full-length protein of about 32.7 kDa after removal of the His tag by rTEV protease; also called wild-type MSMEG_0748; MoxR ATPase; source: E. coli BL21(DE3), purified (Ni-NTA, TEV cleavage, second Ni-NTA, SEC on Superdex 200); not shown: His-tag, N-terminal, cleaved
Turning to B3, the “stoichiometry N” value in series [1] came to 6.
